US12077763B2, “RNA-based control of powdery mildew” (Greenlight Biosciences, Inc., priority 2021, dated 2024)

B1: GS3310 (nucleic acid)
sense: CGUCGACCUCAAAAGCAGAGAAGUUGGGCGAGUUGAUUAUUGCUUCUACGGAGAAAGCCUGUAUAACUGUAGGUUCGUAGCUUUGAGCAUUCAAAAAUUUGUUGUAAACGAUUUUAGUAGAUGAGUAUUCACUUGGCAAAUGAGAGAUUUGAUCUGCUAUUGUUUGAGCGUCUGCAAAGGUUGGAAUAUCUUUCCCUACGCCAGAGAAACUUAAAACAAUAUUUUUACUACUUGACCGACUCAAUUGUGCCUUAGCCUUCUCUCCCAAUACCACAAUAUCGGCAUUGGGGUUUUCAGAGAGCAUUUUUCGAACGUGUUUACUUAAGCCUGAAUGAAUACCGCCGCACAAUCCUUUAUCUGAGCUUGCAACUACAAUCAAGUACUUUUGGUCAUCUUUU
antisense: AAAAGAUGACCAAAAGUACUUGAUUGUAGUUGCAAGCUCAGAUAAAGGAUUGUGCGGCGGUAUUCAUUCAGGCUUAAGUAAACACGUUCGAAAAAUGCUCUCUGAAAACCCCAAUGCCGAUAUUGUGGUAUUGGGAGAGAAGGCUAAGGCACAAUUGAGUCGGUCAAGUAGUAAAAAUAUUGUUUUAAGUUUCUCUGGCGUAGGGAAAGAUAUUCCAACCUUUGCAGACGCUCAAACAAUAGCAGAUCAAAUCUCUCAUUUGCCAAGUGAAUACUCAUCUACUAAAAUCGUUUACAACAAAUUUUUGAAUGCUCAAAGCUACGAACCUACAGUUAUACAGGCUUUCUCCGUAGAAGCAAUAAUCAACUCGCCCAACUUCUCUGCUUUUGAGGUCGACG
B2: GS3311 (nucleic acid)
sense: CUUCUCGGUAAUUCCGCAACAUUUUUAACCAUGACAUUCCAUUUCGUACAUGCUCUUGAUAUUCCGAUAACGUCAGCCUCUUGAAAUGCAUCACUUCCUAUGGCAGUAGUGGGCACUUGGCCGCAAAAAACUACUAGUGGUGUACCGUCAGAUAGAGCGUCCUGCAUCGGUGUUAUGACAUUUGUUGCACCAGGGCCAGAAGUAACUAGAAUCACCCCAGGAAGUCCACUAGCUCUGGCAUAGCCUUCAGCCAUAUGUCCAGCACCCUGUUCAUGUUUCGGUAGAAUAAAAUCGAAGUGCCUUGAAUUAUAAAUAGCGUCGAAAACGGGAAGAAUUGCUCCACCAGGAUAACCGAAAAUAUGUUUUACACCUUGCCGUAACAUCAUUUCGUGAAAUAU
antisense: AUAUUUCACGAAAUGAUGUUACGGCAAGGUGUAAAACAUAUUUUCGGUUAUCCUGGUGGAGCAAUUCUUCCCGUUUUCGACGCUAUUUAUAAUUCAAGGCACUUCGAUUUUAUUCUACCGAAACAUGAACAGGGUGCUGGACAUAUGGCUGAAGGCUAUGCCAGAGCUAGUGGACUUCCUGGGGUGAUUCUAGUUACUUCUGGCCCUGGUGCAACAAAUGUCAUAACACCGAUGCAGGACGCUCUAUCUGACGGUACACCACUAGUAGUUUUUUGCGGCCAAGUGCCCACUACUGCCAUAGGAAGUGAUGCAUUUCAAGAGGCUGACGUUAUCGGAAUAUCAAGAGCAUGUACGAAAUGGAAUGUCAUGGUUAAAAAUGUUGCGGAAUUACCGAGAAG
B3: ES52: dsRNA trigger SEQ ID NO 113; gene target Hypotethical effector (nucleic acid)
DNA: ATGTTCAAAAAATTTATTTTCCTCTCAAGCCAGGCCTTAATGGTACTTTCGAATCCTCTTTATATTGGTGATAATCATCTTCCGAGCGACCAAAATAATCCGTTCTTAATATCCTATGATTGGAAAGCTGGCTTTACAAGCGAATTCGAACTTCATGATTCCTGCAATGCAACACAGAAAAAACAGCTGCAAGACGGCCTCTCTGACGCTGTGACACTTGCTAGGCATGCTAAAGAACATATTCTTGTGAAGGGAACTGAATCACCCATATATAAGAAATATTTCGGTCAAGGTCCTACAGGATCGGTCCTGGGATGGTATGACAAAATTGCTTCTTCTGACCGAAAAGACATCCTTTTCCGTTGTGATGACCCCGATAAGAATTGCCAAACTCAACCTCAATGGGCTGGACATCACCGCGGAAAAAATGCGTCATTAGAGACAGTGATCTGCGAGCTTTCATTTCTCACTCGGCTTCCACTTGAAGCTC

System: E. necator
Experiment: Leaf disc assay, dry inoculum (settling tower), decrease in disease severity / hyphal growth (Example 2)
Details: decrease in disease severity (hyphal growth) relative to untreated control; time point 1 (untreated control hyphal growth ≥50%); value ± SE

Molecule	% decrease =/− SE TP1
B1	22 ± 8%
B2	29 ± 7%
B3	6 ± 1%

Same assay, conditions: decrease in disease severity (hyphal growth) relative to untreated control; time point 2; value ± SE

Molecule	% decrease =/− SE TP2
B1	11 ± 8%
B2	24 ± 7%
B3	6 ± 2%
